# According to the supplement of paper PMC10567573:
# B1: CDC14A (parent)
# chain: GPHPKSKIENGYPLHAPEAYFPYF
# Variants of: B1
# Assay: protein stability index of a GFP-peptide fusion (GPS, HEK-293T) (PSI 1-6); higher = more stable
# Settings: c terminus: a fixed tail appended
# 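Also: lentivirally expressed fusions sorted by FACS into six bins by GFP to DsRed ratio, PSI derived from sequencing read proportions per bin multiplied by bin number.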
row,Variant,protein stability index
1,GPHPKSKIENGYNLHAPEAYFPYF,2.68
2,GPHPKSKIENGYILHAPEAYFPYF,1.43
3,GPHPKSKIENGYQLHAPEAYFPYF,2.43
4,GPHPKSKIENGYKLHAPEAYFPYF,1.88
5,GPHPKSKIENGYRLHAPEAYFPYF,2.06
6,GPHPKSKIENGYALHAPEAYFPYF,2.57
7,GPHPKSKIENGYPWHAPEAYFPYF,2.46
8,GPHPKSKIENGYPGHAPEAYFPYF,2.65
9,GPHPKSKIENGYPMHAPEAYFPYF,2.41
10,GPHPKSKIENGYPEHAPEAYFPYF,3.65
11,GPHPKSKIENGYPFHAPEAYFPYF,2.02
12,GPHPKSKIENGYPSHAPEAYFPYF,2.79
13,GPHPKSKIENGYPTHAPEAYFPYF,2.45
14,GPHPKSKIENGYPIHAPEAYFPYF,2.27
15,GPHPKSKIENGYPHHAPEAYFPYF,2.68
16,GPHPKSKIENGYPYHAPEAYFPYF,1.89
17,GPHPKSKIENGYPCHAPEAYFPYF,1.67
18,GPHPKSKIENGYPVHAPEAYFPYF,2.11
19,GPHPKSKIENGYPKHAPEAYFPYF,2.4
20,GPHPKSKIENGYPRHAPEAYFPYF,2.51
21,GPHPKSKIENGYPDHAPEAYFPYF,2.59
22,GPHPKSKIENGYPNHAPEAYFPYF,2.81
23,GPHPKSKIENGYPAHAPEAYFPYF,2.46
24,GPHPKSKIENGYPQHAPEAYFPYF,3.06

row,Variant,protein stability index
1,GPHPKSKFENGYPLHAPEAYFPYF,2.23
2,GPHPKSKPENGYPLHAPEAYFPYF,2.56
3,GPHPKSKRENGYPLHAPEAYFPYF,2.75
4,GPHPKSKLENGYPLHAPEAYFPYF,2.03
5,GPHPKSKTENGYPLHAPEAYFPYF,2.48
6,GPHPKSKGENGYPLHAPEAYFPYF,2.28
7,GPHPKSKKENGYPLHAPEAYFPYF,2.53
8,GPHPKSKMENGYPLHAPEAYFPYF,2.09
9,GPHPKSKNENGYPLHAPEAYFPYF,2.98
10,GPHPKSKWENGYPLHAPEAYFPYF,1.77
11,GPHPKSKYENGYPLHAPEAYFPYF,1.88
12,GPHPKSKVENGYPLHAPEAYFPYF,2.48
13,GPHPKSKQENGYPLHAPEAYFPYF,2.7
14,GPHPKSKSENGYPLHAPEAYFPYF,2.29
15,GPHPKSKHENGYPLHAPEAYFPYF,2.37
16,GPHPKSKIENGYPLHHPEAYFPYF,2.32
17,GPHPKSKIENGYPLHRPEAYFPYF,2.35
18,GPHPKSKIENGYPLHIPEAYFPYF,2.04
19,GPHPKSKIENGYPLHEPEAYFPYF,2.4
20,GPHPKSKIENGYPLHSPEAYFPYF,2.14
21,GPHPKSKIENGYPLHNPEAYFPYF,2.25
22,GPHPKSKIENGYPLHVPEAYFPYF,2.21
23,GPHPKSKIENGYPLHTPEAYFPYF,2.41
24,GPHPKSKIENGYPLHMPEAYFPYF,2.01

row,Variant,protein stability index
1,GPHPKSKIENGYPLHQPEAYFPYF,2.49
2,GPHPKSKIENGYPLHYPEAYFPYF,2.29
3,GPHPKSKIENGYPLHLPEAYFPYF,1.95
4,GPHPKSKIENGYPLHDPEAYFPYF,2.45
5,GPHPKSKIENGYPLHKPEAYFPYF,2.12
6,GPHPKSKIENGYPLHGPEAYFPYF,2.77
7,GPHPKSKIENGYPLHWPEAYFPYF,1.99
8,GPHPKSKIENGYPLHCPEAYFPYF,2.84
9,GPHPKSKIENGYPLHFPEAYFPYF,1.82
10,GPHPKSKIENIYPLHAPEAYFPYF,1.64
11,GPHPKSKIENPYPLHAPEAYFPYF,3.76
12,GPHPKSKIENWYPLHAPEAYFPYF,1.55
13,GPHPKSKIENVYPLHAPEAYFPYF,2.03
14,GPHPKSKIENFYPLHAPEAYFPYF,1.72
15,GPHPKSKIENAYPLHAPEAYFPYF,2.41
16,GPHPKSKIENKYPLHAPEAYFPYF,2.44
17,GPHPKSKIENSYPLHAPEAYFPYF,2.09
18,GPHPKSKIENMYPLHAPEAYFPYF,2.09
19,GPHPKSKIENDYPLHAPEAYFPYF,2.85
20,GPHPKSKIENRYPLHAPEAYFPYF,2.5
21,GPHPKSKIENTYPLHAPEAYFPYF,1.75
22,GPHPKSKIENYYPLHAPEAYFPYF,2.12
23,GPHPKSKIENCYPLHAPEAYFPYF,1.73
24,GPHPKSKIENQYPLHAPEAYFPYF,2.31

row,Variant,protein stability index
1,GPHPKSKIENEYPLHAPEAYFPYF,2.52
2,GPHPKSKIENHYPLHAPEAYFPYF,2.17
3,GPHPKSKIENLYPLHAPEAYFPYF,2.56
4,GPHPKSKIENNYPLHAPEAYFPYF,2.07
5,GPHPKSKIENGVPLHAPEAYFPYF,2.19
6,GPHPKSKIENGCPLHAPEAYFPYF,2.42
7,GPHPKSKIENGAPLHAPEAYFPYF,2.99
8,GPHPKSKIENGRPLHAPEAYFPYF,2.58
9,GPHPKSKIENGTPLHAPEAYFPYF,3.07
10,GPHPKSKIENGEPLHAPEAYFPYF,3.56
11,GPHPKSKIENGMPLHAPEAYFPYF,2.74
12,GPHPKSKIENGGPLHAPEAYFPYF,2.67
13,GPHPKSKIENGQPLHAPEAYFPYF,2.7
14,GPHPKSKIENGHPLHAPEAYFPYF,2.99
15,GPHPKSKIENGDPLHAPEAYFPYF,3.24
16,GPHPKSKIENGSPLHAPEAYFPYF,2.73
17,GPHPKSKIENGIPLHAPEAYFPYF,2.82
18,GPHPKSKIENGNPLHAPEAYFPYF,3.03
19,GPHPKSKIENGKPLHAPEAYFPYF,2.69
20,GPHPKSKIENGFPLHAPEAYFPYF,1.78
21,GPHPKSKIENGLPLHAPEAYFPYF,2.46
22,GPHPKSKIENGWPLHAPEAYFPYF,1.86
